Results published in patent US20190016816A1 (APTEVO RESEARCH AND DEVELOPMENT, published 2019).

T1: human 5T4 on cells (human, UniProt Q13641 32-420)
T1 construct: also called TPBG; hu5T4
T1 sequence: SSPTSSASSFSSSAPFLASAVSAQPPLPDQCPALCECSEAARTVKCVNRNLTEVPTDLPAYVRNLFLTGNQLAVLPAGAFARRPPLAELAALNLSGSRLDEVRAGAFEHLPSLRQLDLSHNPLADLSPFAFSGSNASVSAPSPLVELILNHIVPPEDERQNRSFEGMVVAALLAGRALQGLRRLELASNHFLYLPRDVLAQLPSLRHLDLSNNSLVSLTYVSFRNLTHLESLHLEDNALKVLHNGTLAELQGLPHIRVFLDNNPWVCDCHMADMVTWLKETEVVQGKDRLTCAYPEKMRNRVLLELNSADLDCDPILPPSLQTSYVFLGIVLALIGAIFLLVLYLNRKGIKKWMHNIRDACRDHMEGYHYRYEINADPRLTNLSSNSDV


Columns and labels:
[1] = target: T2, FcγRI (CD64) (UniProt P12314 16-374, limits assumed); test: flow cytometry, CHO cells stably expressing CD64, fluorescent anti-human IgG secondary, MFI (mean)
T2 construct: whole, on cells
T2 sequence (P12314 16-374 limits assumed): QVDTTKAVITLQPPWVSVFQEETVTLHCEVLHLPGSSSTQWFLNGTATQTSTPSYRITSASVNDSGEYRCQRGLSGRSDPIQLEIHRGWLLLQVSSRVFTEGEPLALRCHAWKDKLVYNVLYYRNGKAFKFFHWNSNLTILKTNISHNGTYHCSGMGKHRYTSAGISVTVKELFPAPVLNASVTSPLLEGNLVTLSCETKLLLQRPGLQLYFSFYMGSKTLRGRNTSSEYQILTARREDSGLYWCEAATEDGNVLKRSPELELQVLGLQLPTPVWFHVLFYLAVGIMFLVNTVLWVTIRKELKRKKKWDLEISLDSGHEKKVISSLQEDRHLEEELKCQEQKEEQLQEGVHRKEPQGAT
Excerpt: ALG.APV-210 contains mutations introduced to prevent interaction with Fcγ receptors (FcγR) that could lead to FcγR-mediated T-cell activation or ADCC, ADCP, CDC etc. Binding of ALG.APV-210 was therefore tested on CHO cell transfectants stably expressing the following FcγR: FcγRI (CD64), FcγRIIa (CD32a His131), FcγRIIb (CD32b), FcγRIIIa (CD16a Val158 and CD16a Phe158), and FcγRIIIb (CD16b). Untransfected CHO cells were used as negative control. A control human IgG1 molecule was used as a positive control. Different concentrations of ALG.APV-210 or control IgG1 were incubated with the FcγR-expressing cell lines, washed, and labeled with a secondary anti-human IgG reagent. Binding of ALG.APV-210 and the control IgG1 was detected by flow cytometry.

[2] = target: T1, human 5T4 on cells; test: flow cytometry, CT26-hu5T4^high cells, streptavidin-PE, normalized MFI of 2 pooled experiments
Procedure: (§1) Prior to the FACS staining, all cell lines were characterized for their 5T4 expression levels using a receptor density kit (Quantum Simply Cellular, anti-human IgG, Bangs Laboratories, Inc). Adherent cell lines were cultured according to their supplier's instructions and were harvested from their cell culture flasks using Trypsin/EDTA, counted in R10 medium in a Burker chamber, and diluted in FACS buffer (PBS+0.5% BSA, 0.05% NaN₃) to a concentration of 4×10⁶ cells/mL. 50 μL (0.20×10⁶) of cell solution was added to a 96-well FACS staining plate (Falcon #351190). Cells were incubated for 20 min in 4° C. with 50 μL of the biotinylated ALG.APV-210 (2× final concentration). The antibodies were added in a serial dilution starting at 20 μg/mL titrating down in a 12 step ½ dilution down to 0.010 μg/mL. Following 2× washing with FACS buffer, cells were incubated for 30 min in 4° C. with 100 μL of a secondary antibody (streptavidin-PE, BD #554061, diluted 1/500). […] Cells were analysed for ALG.APV-210 binding using flow cytometry (FACSVerse) by gating on single cells. MFI values (secondary antibody only subtracted) from 1 out of 2 independent experiments, as well as normalized data and EC₅₀-values of pooled data from 2 experiments were determined and plotted using GraphPad Prism 7, non-linear regression log (agonist) vs. normalized response—variable slope.

[3] = target: T1, human 5T4 on cells; test: flow cytometry, HT29 cells (endogenous human 5T4), biotinylated ALG.APV-210 + streptavidin-PE, 1 of 2 experiments
Procedure: as §1, with “μg/mL.” for “μg/mL. Following 2× washing with FACS buffer, cells were incubated for 30 min in 4° C. with 100 μL of a secondary antibody (streptavidin-PE, BD #554061, diluted 1/500).”
(§2) The binding (EC₅₀) of the biotinylated ALG.APV-210 to 5T4 when expressed on cells, either at endogenous levels on human tumor cells or on cells transfected to express 5T4 was assessed. […]

[4] = target: T1, human 5T4 on cells; test: flow cytometry, CT26 cells transfected with human 5T4 (low clone), biotinylated ALG.APV-210 + streptavidin-PE, 1 of 2 experiments
Procedure: as §1, with “μg/mL.” for “μg/mL. Following 2× washing with FACS buffer, cells were incubated for 30 min in 4° C. with 100 μL of a secondary antibody (streptavidin-PE, BD #554061, diluted 1/500).”
as §2

[5] = target: T3, cynomolgus CD137 on cells (cynomolgus macaque, UniProt A9YYE7 24-254); test: flow cytometry, normalized percentage of CD8 T cells (gated from CD3-stimulated cynomolgus PBMC) bound by the biotinylated antibody, pooled data of 2 exp, n=6 donors
T3 construct: whole, on cells; also called CHO-K1/cynomolgus CD137 cell line; cynomolgus monkey CD137 on CD3-stimulated primary CD8 T cells
T3 sequence (A9YYE7 entry or part of it): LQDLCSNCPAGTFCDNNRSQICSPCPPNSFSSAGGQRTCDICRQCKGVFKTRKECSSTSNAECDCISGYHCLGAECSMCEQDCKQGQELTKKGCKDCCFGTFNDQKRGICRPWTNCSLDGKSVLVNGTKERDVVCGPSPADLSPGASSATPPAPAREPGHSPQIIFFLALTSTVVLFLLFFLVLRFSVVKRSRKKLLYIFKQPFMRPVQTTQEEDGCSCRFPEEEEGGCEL
Procedure: Following 48 h of incubation with or without CD3, human and cynomolgus PBMC were harvested, pooled, recounted and diluted in FACS buffer (PBS+0.5% BSA, 0.05% NaN₃) to a concentration of 5×10⁶ cells/mL. 50 μL (0.25×10⁶ cells) of cell solution was added to a 96-well FACS staining plate (Falcon #351190). Following 10 min of Fc-blocking in RT using Beriglobin (hIgG, 200 μg/mL), cells were washed in FACS buffer and then incubated for 1 h in 4° C. with 100 μL of the biotinylated ALG.APV-210 or negative control. The antibodies were added in a serial dilution starting either at 5 μg/mL titrating down in a 12 step ⅓ dilution down to […] (exp 1) or 1 μg/mL titrating down in a 12 step ½ dilution down to 0.0005 μg/mL (exp 2). […] Cells were analysed for ALG.APV-210 binding using flow cytometry by gating on viable, single cells expressing CD3 and CD8. MFI values (FMO subtracted) from 2 independent experiments as well as normalized pooled data from 2 experiments and EC₅₀-values were determined and plotted using GraphPad Prism 7, non-linear regression log (agonist) vs. normalized response—variable slope, n=6 donors/group.

Binder | binding result [1] | EC50 [2] [nM] | EC50 (read off the curve) [3] [nM] | EC50 (read off the curve) [4] [nM] | EC50 [5] [nM]
ALG.APV-210 (bispecific antibody, Optimized ADAPTIR scFv-Fc-scFv homodimer with stabilizing disulfide in the 1210 scFv; also called 5T4-CD137 bispecific antibody) EVQLLESGGGLVQPGGSLRLSCAASGFTFSHGSMYWVRQAPGKGLEWVSSISSGSGSTYYADSVKGRFTISHDNSKNTLYLQMNSLRAEDTAVYYCARSSYYGSYYSIDYWGQGTLVTVSSGGGGSGGGGSGGGGSGGGGSDIQMTQSPSSLSASVGDRVTITCRASQSISSYLNWYQQKPGKAPKLLIYAASSLQSGVPSRFSGSGSGTDFTLTISSLQPEDFATYYCQQYYDNLPTFGQGTKLEIKEPKSSDKTHTCPPCPAPEAAGAPSVFLFPPKPKDTLMISRTPEVTCVVVDVSHEDPEVKFNWYVDGVEVHNAKTKPREEQYNSTYRVVSVLTVLHQDWLNGKEYKCAVSNKALPAPIEKTISKAKGQPREPQVYTLPPSRDELTKNQVSLTCLVKGFYPSDIAVEWESNGQPENNYKTTPPVLDSDGSFFLYSKLTVDKSRWQQGNVFSCSVMHEALHNHYTQKSLSLSPGSGGGGSGGGGSGGGGSPSEVQLLESGGGLVQPGGSLRLSCAASGFTFSSYAMSWVRQAPGKCLEWVSAISGSGGSTYYADSVKGRFTISRDNSKNTLYLQMNSLRAEDTAVYYCARYYGGYYSAWMDYWGQGTLVTVSSGGGGSGGGGSGGGGSGGGGSDIQMTQSPSSLSASVGDRVTITCRASQSISSFLNWYQQKPGKAPKLLIYAASSLQSGVPSRFSGSGSGTDFTLTISSLQPEDSATYYCQQTYGYLHTFGCGTKLEIKR | no binding (tested: 1000 nM) | – | – | – | –
biotinylated ALG.APV-210 (bispecific antibody, also called ALG.APV-210 (biotinylated for FACS detection)) EVQLLESGGGLVQPGGSLRLSCAASGFTFSHGSMYWVRQAPGKGLEWVSSISSGSGSTYYADSVKGRFTISHDNSKNTLYLQMNSLRAEDTAVYYCARSSYYGSYYSIDYWGQGTLVTVSSGGGGSGGGGSGGGGSGGGGSDIQMTQSPSSLSASVGDRVTITCRASQSISSYLNWYQQKPGKAPKLLIYAASSLQSGVPSRFSGSGSGTDFTLTISSLQPEDFATYYCQQYYDNLPTFGQGTKLEIKEPKSSDKTHTCPPCPAPEAAGAPSVFLFPPKPKDTLMISRTPEVTCVVVDVSHEDPEVKFNWYVDGVEVHNAKTKPREEQYNSTYRVVSVLTVLHQDWLNGKEYKCAVSNKALPAPIEKTISKAKGQPREPQVYTLPPSRDELTKNQVSLTCLVKGFYPSDIAVEWESNGQPENNYKTTPPVLDSDGSFFLYSKLTVDKSRWQQGNVFSCSVMHEALHNHYTQKSLSLSPGSGGGGSGGGGSGGGGSPSEVQLLESGGGLVQPGGSLRLSCAASGFTFSSYAMSWVRQAPGKCLEWVSAISGSGGSTYYADSVKGRFTISRDNSKNTLYLQMNSLRAEDTAVYYCARYYGGYYSAWMDYWGQGTLVTVSSGGGGSGGGGSGGGGSGGGGSDIQMTQSPSSLSASVGDRVTITCRASQSISSFLNWYQQKPGKAPKLLIYAASSLQSGVPSRFSGSGSGTDFTLTISSLQPEDSATYYCQQTYGYLHTFGCGTKLEIKR | – | 20 | ~10 | ~10 | 0.019
